From patent US20020064869A1 (published 2002)

What was measured:
[1] = biological target: Fas on TIL1200 cells (human) (UniProt P25445); test: cell-based or functional assay
[2] = biological target: T1, human LTβR-Fc fusion protein (extracellular domain of lymphotoxin-β receptor fused to IgG1 Fc) (human, UniProt P36941 31-227); test: BIAcore, LTβR-Fc immobilized, CHO conditioned media
T1 construct: extracellular domain; Made in baculovirus-infected Sf21 cells; also called sLTβR-Fc; lymphotoxin-β receptor-Fc fusion protein; not shown: IgG1 Fc from vector pUC19-IgG1-Fc; hybridomas were counter-screened on human IgG1
T1 sequence (P36941 31-227 limits assumed): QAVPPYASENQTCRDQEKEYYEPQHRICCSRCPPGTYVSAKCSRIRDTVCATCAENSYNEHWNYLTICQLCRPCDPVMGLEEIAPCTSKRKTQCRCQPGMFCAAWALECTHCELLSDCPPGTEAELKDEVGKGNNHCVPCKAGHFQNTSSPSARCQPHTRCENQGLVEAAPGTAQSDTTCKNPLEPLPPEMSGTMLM

[3] = biological target: LTβR on the surface of human cancer cells (MDA-MB-231, HT-29) (human, UniProt P36941 31-435); test: cell-based or functional assay
Sequence of LTβR on the surface of human cancer cells (MDA-MB-231, HT-29) (P36941 31-435): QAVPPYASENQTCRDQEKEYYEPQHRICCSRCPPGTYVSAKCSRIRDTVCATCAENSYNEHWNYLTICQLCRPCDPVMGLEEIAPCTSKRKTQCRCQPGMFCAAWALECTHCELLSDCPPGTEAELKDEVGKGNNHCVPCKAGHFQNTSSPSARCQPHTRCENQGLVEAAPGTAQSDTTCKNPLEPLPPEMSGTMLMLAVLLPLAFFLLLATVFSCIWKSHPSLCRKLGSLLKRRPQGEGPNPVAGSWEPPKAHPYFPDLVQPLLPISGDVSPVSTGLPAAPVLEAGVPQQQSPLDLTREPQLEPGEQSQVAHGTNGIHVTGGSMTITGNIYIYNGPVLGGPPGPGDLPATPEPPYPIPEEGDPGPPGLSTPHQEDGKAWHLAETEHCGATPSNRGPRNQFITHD

[4] = biological target: T2, TR2 on the surface of human cells (MDA-MB-231, HT-29, PBL T cells) (human, UniProt Q92956 39-283); test: cell-based or functional assay
T2 sequence (looked up): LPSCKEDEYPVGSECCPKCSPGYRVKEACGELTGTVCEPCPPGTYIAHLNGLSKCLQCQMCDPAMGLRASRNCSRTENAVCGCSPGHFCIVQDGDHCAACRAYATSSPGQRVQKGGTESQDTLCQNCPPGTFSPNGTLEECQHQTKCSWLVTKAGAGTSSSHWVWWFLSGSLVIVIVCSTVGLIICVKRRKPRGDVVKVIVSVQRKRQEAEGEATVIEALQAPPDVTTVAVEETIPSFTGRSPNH

Sequence of Fas on TIL1200 cells (human) (P25445 26-335): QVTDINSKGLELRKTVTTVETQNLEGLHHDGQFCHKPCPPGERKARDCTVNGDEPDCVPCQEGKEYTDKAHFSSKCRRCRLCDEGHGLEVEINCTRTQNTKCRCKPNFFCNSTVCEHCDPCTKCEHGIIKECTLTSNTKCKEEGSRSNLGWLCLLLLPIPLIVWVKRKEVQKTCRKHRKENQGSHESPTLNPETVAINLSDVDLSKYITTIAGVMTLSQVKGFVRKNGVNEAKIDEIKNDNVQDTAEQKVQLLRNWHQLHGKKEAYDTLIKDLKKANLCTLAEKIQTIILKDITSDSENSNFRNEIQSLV

**Q.** “apoptosis inducing anti-Fas Mab CH-11 (antibody)” was tested. Which apoptosis of TIL1200 cells [1] did it give?
**A.** Its apoptosis of TIL1200 cells is 90%.

B1: ck-beta8/AIM II fusion protein, extracellular region of AIM II (amino acids 60-240), from CHO 11 conditioned media (ligand)
chain: SQAGSQLHWRLGEMVTRLPDGPAGSWEQLIQERRSHEVNPAAHLTGANSSLTGSGGPLLWETQLGLAFLRGLSYHDGALVVTKAGYYYIYSKVQLGGVGCPLGLASTITHGLYKRTPRYPEELELLVSQQSPCGRATSSSRVWWDSSFLGGVVHLEAGEEVVVRVLDERLVRLRDGTRSYFGAFMV
notes: Two N-termini were found (40% each): SQAGS... and GSQLH; the second species lacks the first three residues SQA; also called CHO-11 AIM II; ck-beta-8-AIM2
**Q.** Does B1 bind [2]?
**A.** Result: binds

B2: recombinant soluble form of AIM II protein (sAIM II), Flag-tagged, amino acids 74-240 of AIM II (ligand, not shown: small tags and cut ends)
chain: DGPAGSWEQLIQERRSHEVNPAAHLTGANSSLTGSGGPLLWETQLGLAFLRGLSYHDGALVVTKAGYYYIYSKVQLGGVGCPLGLASTITHGLYKRTPRYPEELELLVSQQSPCGRATSSSRVWWDSSFLGGVVHLEAGEEVVVRVLDERLVRLRDGTRSYFGAFMV
**Q.** How did the “IC50 of cytotoxic effect on HT-29 cells in the presence of 10 u/ml IFNγ” value [3] turn out when B2 was run?
**A.** Its value is less than 1 ng/mL.

**Q.** And the “IC50 of cytotoxic effect on HT-29 cells in the presence of 10 u/ml IFNγ” value [4]?
**A.** Its value is less than 1 ng/mL.
